2 molecules from US20040053278A1 (JAPANESE FOUNDATION FOR CANCER RESEARCH, published 2004) can be followed below.

The target of experiment [1] is T1, wild type (wt) HA-tagged TβR-I (UniProt P36897 34-503, limits assumed).
T1 construct: whole, on cells; also called wild type TβR-I; TGF-β type I receptor
T1 sequence (looked up): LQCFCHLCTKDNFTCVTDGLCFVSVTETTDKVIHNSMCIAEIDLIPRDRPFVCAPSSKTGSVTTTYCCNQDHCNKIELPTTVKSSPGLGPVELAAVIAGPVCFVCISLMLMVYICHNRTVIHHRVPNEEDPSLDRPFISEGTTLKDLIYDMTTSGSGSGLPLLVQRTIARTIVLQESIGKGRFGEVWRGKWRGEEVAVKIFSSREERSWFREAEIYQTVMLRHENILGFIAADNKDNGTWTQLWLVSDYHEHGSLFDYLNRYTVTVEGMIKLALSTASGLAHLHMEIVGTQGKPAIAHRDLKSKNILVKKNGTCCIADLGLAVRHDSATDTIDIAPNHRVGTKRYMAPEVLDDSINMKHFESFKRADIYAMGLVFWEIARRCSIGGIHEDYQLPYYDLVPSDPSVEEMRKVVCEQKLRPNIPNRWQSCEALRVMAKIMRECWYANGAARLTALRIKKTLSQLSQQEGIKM
In words: affinity cross-linking with 125I-TGF-β1, anti-FLAG immunoprecipitation from COS-7 lysates, SDS-PAGE and autoradiography. The text has this:
The interaction of Smad6 with the type I receptors was examined in affinity cross-linking assays. COS-7 cells were transfected with FLAG-tagged Smad6 (F-Smad6) or FLAG-tagged Smad2 (F-Smad2) in combination with the wild type (wt) or kinase-defective (KR) HA-tagged TβR-I and hexahistidine-tagged TβR-II. Cells were affinity labeled with ¹²⁵I-TGF-β1 and lysates were immunoprecipitated with anti-HA antibody or anti-FLAG M2 antibody. Immune complexes were subjected to SDS-PAGE and autoradiography. Smad6 bound to both wild type and kinase-defective TβR-I depending on the kinase activity of TβR-II. […] Similarly to Smad2, the binding of Smad6 to TβR-I required the kinase activity of TβR-II (FIG. 2a). Smad6, however, stably bound to the wild type TβR-I.

For experiment [2], the target named is T2, Smad6 (epitope-tagged, heteromerization experiment of Example 4) (mouse, UniProt O35182 1-495).
T2 construct: Whole coding region of mouse Smad6, expressed inside COS-7 cells
T2 sequence: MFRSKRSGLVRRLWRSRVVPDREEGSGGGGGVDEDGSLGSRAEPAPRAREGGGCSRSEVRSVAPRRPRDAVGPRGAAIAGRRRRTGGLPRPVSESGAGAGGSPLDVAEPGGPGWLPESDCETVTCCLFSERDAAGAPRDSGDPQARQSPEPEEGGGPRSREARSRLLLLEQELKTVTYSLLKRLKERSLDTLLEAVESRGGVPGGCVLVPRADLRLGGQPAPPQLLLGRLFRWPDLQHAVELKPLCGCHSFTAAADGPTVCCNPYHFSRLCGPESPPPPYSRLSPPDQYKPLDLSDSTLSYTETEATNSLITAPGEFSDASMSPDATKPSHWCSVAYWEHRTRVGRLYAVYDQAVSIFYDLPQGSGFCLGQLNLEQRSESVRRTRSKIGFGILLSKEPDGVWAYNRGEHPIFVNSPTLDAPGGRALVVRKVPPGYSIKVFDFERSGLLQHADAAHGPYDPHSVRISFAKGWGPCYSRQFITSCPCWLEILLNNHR
The experiment is described as follows: co-immunoprecipitation and Western blot from transfected COS-7 cells. The text has this: COS-7 cells were transiently transfected using DMRIE-C (Gibco/BRL, Gaithersburg, Md.). [³²P]orthophosphate- or [³⁵]methionine/cysteine-labeling and immunoprecipitation were done as described by Nakao et al. (J. Biol. Chem. 272:2896-2900, 1997). For Western blot of the immunoprecipitated proteins, tagged proteins were detected by chemiluminescence (ECL, Amersham, Arlington Heights, Ill.).
Smad2 heteromerizes with Smad4 upon phosphorylation by TβR-I (Lagna et al., 1996). It was recently shown that TGF-β also induces association of Smad2 and Smad3 (Nakao et al., EMBO. J. 16:5353-5362, 1997). The effect of Smad6 on the heteromerization of these Smads was examined (FIG. 4). COS-7 cells were transfected with the indicated combination of plasmids and subjected to immunoprecipitation followed by Western blot detection. Expression levels of Smad2 (bottom), Smad4 (middle), and Smad6 (middle) were monitored.

B1: FLAG-tagged Smad2 (other, not shown: small tags and cut ends)
chain: SSILPFTPPVVKRLLGWKKSAGGSGGAGGGEQNGQEEKWCQKAVKSLVKKLKKTGRLDELEKAITTQNCNTKCVTIPSTCSEIWGLSTANTVDQWDTTGLYSFSEQTRSLDGRLQVSHRKGLPHVIYCRLWRWPDLHSHHELKAIENCEYAFNLKKDEVCVNPYHYQRVETPVLPPVLVPRHTEILTELPPLDDYTHSIPENTNFPAGIEPQSNYIPETPPPGYISEDGETSDQQLNQSMDTGSPAELSPTTLSPVNHSLDLQPVTYSEPAFWCSIAYYELNQRVGETFHASQPSLTVDGFTDPSNSERFCLGLLSNVNRNATVEMTRRHIGRGVRLYYIGGEVFAECLSDSAIFVQSPNCNQRYGWHPATVCKIPPGCNLKIFNNQEFAALLAQSVNQGFEAVYQLTRMCTIRMSFVKGWGAEYRRQTVTSTPCWIELHLNGPLQWLDKVLTQMGSPSVRCSSMS
notes: Expressed inside COS-7 cells; also called F-Smad2
Consider B1, for which the binding result in experiment [1] was “no binding”.

B2: Smad2 (epitope-tagged, heteromerization experiment of Example 4) (other, not shown: small tags and cut ends)
chain: SSILPFTPPVVKRLLGWKKSAGGSGGAGGGEQNGQEEKWCQKAVKSLVKKLKKTGRLDELEKAITTQNCNTKCVTIPSTCSEIWGLSTANTVDQWDTTGLYSFSEQTRSLDGRLQVSHRKGLPHVIYCRLWRWPDLHSHHELKAIENCEYAFNLKKDEVCVNPYHYQRVETPVLPPVLVPRHTEILTELPPLDDYTHSIPENTNFPAGIEPQSNYIPETPPPGYISEDGETSDQQLNQSMDTGSPAELSPTTLSPVNHSLDLQPVTYSEPAFWCSIAYYELNQRVGETFHASQPSLTVDGFTDPSNSERFCLGLLSNVNRNATVEMTRRHIGRGVRLYYIGGEVFAECLSDSAIFVQSPNCNQRYGWHPATVCKIPPGCNLKIFNNQEFAALLAQSVNQGFEAVYQLTRMCTIRMSFVKGWGAEYRRQTVTSTPCWIELHLNGPLQWLDKVLTQMGSPSVRCSSMS
B2: the binding result in experiment [2] was “no binding”.
